The target of this assay is T1, WT NRG1 EGF-like domain.
T1 construct: also called NRG1 EGF domain; neuregulin-1; source: endotoxin-free E. coli BL21 (DE3) pLysS Clear-coli, purified (Ni-NTA in 8M urea, re-folded)
T1 chain: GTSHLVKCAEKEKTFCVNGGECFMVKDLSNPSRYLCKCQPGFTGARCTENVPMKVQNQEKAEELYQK
Description: ELISA; NRG1 (20 μg/mL in PBS) immobilised to wells, blocked with 0.1% BSA; peptides fused to GST in PBS/Tween20 (0.05%), 1 h at room temperature; HRP-conjugated anti-GST antibody; signals with scrambled β3 site 2 peptide subtracted. As to conditions: both partners purified.

These results are taken from article PMC12025393, “Neuregulin-1 (NRG1) Binds to the Allosteric Binding Site (Site 2) and Suppresses Allosteric Integrin Activation by Inflammatory Cytokines: A Potential Mechanism of Anti-Inflammatory and Anti-Fibrosis Action of NRG1” (Cells, 2025).

No end group written: not given here.

B1: β3 specificity-determining loop (SDL) peptide fused to GST (peptide)
chain: DKPVSPYMYISPPEALENPCYDMKTTCLPMF
modifications: not fully specified (N-terminus); cysteine pairing not given here; also: fused to GST
notes: cDNA fragment subcloned into the BamHI/EcoRI site of pGEX2T; also called β3 SDL peptide; β3-SDL peptide; source: E. coli BL21, purified (Glutathione Sepharose)
As for B1, the binding result is listed as “binds”.
